The target in the assay is human p21-activated kinase 1 (PAK1) (human) (UniProt Q13153). Put plainly: cell-based or functional assay.

The record followed here is US20050037965A1.

“PAK1 inhibitory domain (PAK1-ID), HA-tagged PAK1 residues 83 to 149” came in with an inhibition of IL-1β induced expression of PGE2 in SW1353 cells (ELISA of supernatants) of more than 50%, an inhibition of IL-1β-induced expression of MMP13 in SW1353 cells (ELISA of supernatants) of 55% and an inhibition of basal MMP13 expression in non-stimulated SW1353 cells (ELISA of supernatants) of more than 80%.
